Among the targets are hGH R178Y; hGH S51D; hGH Q46R; hGH K41R; hGH E65Y; hGH Q22H; hGH R178F.
Common to all, as to test: SPR
(In SPR one partner is held on a chip, and binding of the other changes the refractive index at the surface.)

As a reminder, the Kd is the free concentration of one partner at which half of the binding sites on the other are occupied at equilibrium, for simple one-to-one binding. The koff is a measure of how fast the partners let go of each other. Low values mean a long-lived complex, high ones a short-lived complex.

B1: human Growth Hormone Receptor (hGHR) (receptor)
chain: FSGSEATAAILSRAPWSLQSVNPGLKTNSSKEPKFTKCRSPERETFSCHWTDEVHHGTKNLGPIQLFYTRRNTQEWTQEWKECPDYVSAGENSCYFNSSFTSIWIPYCIKLTSNGGTVDEKCFSVDEIVQPDPPIALNWTLLNVSLTGIHADIQVRWEAPRNADIQKGWMVLEYELQYKEVNETKWKMMDPILTTSVPVYSLKVDKEYEVRVRSKQRNSGNYGEFSEVLYVTLPQMSQFTCEEDFYFPWLLIIIFGIFGLTVMLFVFLFSKQQRIKMLILPPVPVPKIKGIDPDLLKEGKLEEVNTILAIHDSYKPEFHSDDSWVEFIELDIDEPDEKTEESDTDRLLSSDHEKSHSNLGVKDGDSGRTSCCEPDILETDFNANDIHEGTSEVAQPQRLKGEADLLCLDQKNQNNSPYHDACPATQQPSVIQAEKNKPQPLPTEGAESTHQAAHIQLSNPSSLSNIDFYAQVSDITPAGSVVLSPGQKNKAGMSQCDMHPEMVSLCQENFLMDNAYFCEADAKKCIPVAPHIKVESHIQPSLNQEDIYITTESLTTAAGRPGTGEHVPGSEMPVPDYTSIHIVQSPQGLILNATALPLPDKEFLSSCGYVSTDQLNKIMP
Regarding B1, the dissociation constant (Kd) with hGH R178Y worked out at 20 nM; with hGH S51D, 0.6 nM; with hGH Q46R, 40 nM; with hGH K41R, 20 nM; with hGH E65Y, 0.4 nM; with hGH Q22H it was 8 nM. The same molecule came in with a Kd with hGH R178F of 30 nM. The koff with hGH R178Y amounted to 0.006 s⁻¹; in the experiment with hGH S51D, 0.0007 s⁻¹; in the experiment with hGH Q46R, 0.0006 s⁻¹; with hGH K41R, 0.001 s⁻¹; with hGH E65Y, 0.0003 s⁻¹; with hGH Q22H it was 0.0004 s⁻¹. Further, the koff with hGH R178F amounted to 0.008 s⁻¹.

Source of the values: article doi:10.1101/2021.12.16.473085 (2021).
